The supplement of paper PMC9170038

Test system: K4 kissing-loop RNA reporter
Experiment: apparent KD of K4 kissing-loop reporter; higher = weaker reporter binding
Conditions: Eterna round: R107
Description: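 RNA-MaP round R107: designed RNA switches with theophylline, tryptophan, arginine or FMN aptamers are transcribed on-chip within common flanks. They are titrated with a labelled K4 kissing-loop RNA reporter in RNA-MaP buffer (100 mM Tris pH 7.5, 80 mM KCl, 4 mM MgCl2), without ligand or with the indicated ligand. Median apparent KD per design.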

[1] = input ligand: theophylline 20 uM
[2] = input ligand: tryptophan 2.4 mM
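Also: bound reporter read as fluorescence of individual clusters on recovered sequencing chips by microscopy, with normalized cluster intensities fitted with a binding model.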

Sequence	apparent KD of K4 kissing-loop reporter (input ligand: FMN 200 uM)	apparent KD of K4 kissing-loop reporter (input ligand: arginine 13.2 mM)	apparent KD of K4 kissing-loop reporter (input ligand: none)	apparent KD of K4 kissing-loop reporter [1]	apparent KD of K4 kissing-loop reporter [2]
AGUCCACUCUAAAGAGUGGACCUAAGGGAUACCAGUGAUGUUGGUCACCCUUGGCAGCCCUCUGUCAUCGAUAAAGAUGGCAGUA	119 nM	101 nM	118 nM	130 nM	131 nM
AACUCUCAGGCAGCCGAGUGAUGUUCGGCCCGAGGACCGGUACGGCCGCCACUCGGGCCUGAGAGAGGUUAUCAAAGAUAGCCAA [#01 K4 Tryptophan A Same State]	194 nM	75.2 nM	89.8 nM	142 nM	131 nM
UGGUUAAGCAGUGAUGUUGCAAGUGAUGAUACCAGUUAAGAAGAGAACCCUUGGCAGCAUAAAGUGCGCUCUGAUGAGUGUGCUU [whbob_SS_Theo_A_w55]	165 nM	130 nM	146 nM	176 nM	165 nM
GCAGUGAUGUUGCGGAUGUACAGUGGCGUGCGAGGACCGGUACGGCCGCCACUCGUACAGAGCCAGCUAAUACAUCGAUAGGUGA [whbob_SS_Tryp_A_m6]	289 nM	177 nM	239 nM	296 nM	322 nM
AAUUCAGUGAUGUUGGAAGGCAGGAGGGAUACCAGCGGAAAUAAACGCCCUUGGCAGCCCAAAUAUCCCAAAUAGAUAAUAAUUU [Same State - Theophylline A (Freestyle 1)]	581 nM	381 nM	610 nM	607 nM	563 nM
AUUUUGGUUUAGAGUGAUGUUCCUUGUGUUCGAGGACCGGUACGGCCGCCACUCGGGUAGAAAAGAAAAGAAAUGUUUGAUUUUU [BDazzled - #10 SS Tryptophan A]	251 nM	105 nM	548 nM	92.8 nM	123 nM
UGAUACCAGACUGAUACCAGCCACAGAGUCAAAGACUCUGAAAGGGAAACCAGUGAUGUUGGCCCUUGGCAGCAGUCUGGUAUCU [TheoBX 23 #SwitchBubble #StaticStem]	502 nM	412 nM	493 nM	382 nM	431 nM
ACGUGCCCAGUGAUGUUGGAUAAAUAUGAAGGAGCGUGCGAAAGCACAGGUAGGUCGCAUAAUAGCACGAGCCACGAAAGUGGCA [#SwitchBubble 7 #K4Early #Sliding]	179 nM	200 nM	181 nM	245 nM	134 nM
UGUCAUUGGUCUGAUACCAGAAGAAUCUGGAGUGAUGUUCCAAGUCGAUCAAAAGAUCGCUUCCCUUGGCAGCAGACCGAUGACU [TheoBS 24 #SwitchBubble 13 #StaticStem]	315 nM	291 nM	300 nM	188 nM	298 nM
AGACUACUGAUAGGAUAUAACAUCCUAGUCGUAUACCGAAAGGUAUACGAAACCCUUCUAGUGAUGUUAGAAGGGUCGGUAGUCA [Omei KL FMN B Exc B v9]	79.8 nM	67.1 nM	80.9 nM	59.6 nM	69.4 nM
CCGGGCGGCCGAAGGAGCGGGCGGGCCCGAGUGAUGUUCGGGUGGACCGUGAGGUCCGGUGCCCAGGUAGGUCGCGGUUCCGCCC [#2 Same State - Arginine B Attempt #7 (HarryS)]	156 nM	123 nM	157 nM	115 nM	134 nM
UACUAUAGUGAUGUUAUAGAUAAAACAGAUACCAGUGUAACAUAACACCCUUGGCAGCUGAUAAGGGAAAGUAUAAAUGUGUAUU [AstrosSSTHe-A#2newdesignED]	207 nM	188 nM	199 nM	208 nM	186 nM
UGACUUGCCUGAGGAUAUCUAGGAUAUGGAUAAAAUAAAAUAAUAAUGGAGUGAUGUUCCAGAAGGAGAGAAGGCAGGUAAGUCU [KL-XFMN-B16 #DoubleAptamer #SwitchBubble]	190 nM	116 nM	96.1 nM	170 nM	84 nM
UGAUACCAGACUGAUACCAGCCAGUGAUGUUGGCAAUAUCCAAGGUGAGUCAAAGACUCGGGCCCUUGGCAGCAGUCUGGUAUCU [TheoBX 7 #SwitchBubble #StaticStem]	146 nM	139 nM	148 nM	152 nM	135 nM
GCCGUACGCAUGGAUACCAGCAGAACUGCCCUCCCAGUGAUGUUGGGAGGAUCUUUCCUAUGCCCUUGGCAGCCAUGCGUACGGC	148 nM	113 nM	126 nM	117 nM	117 nM
CCAUCGCUAUUCGAUACCAGCCAAGAGGUCUUUGGCCUCUUAAUGGAGUGAUGUUCCAUUGGCCCUUGGCAGCGAAUAGUGAUGG [Theophylline B K4 18]	771 nM	489 nM	723 nM	823 nM	798 nM

Sequence	apparent KD of K4 kissing-loop reporter (input ligand: FMN 200 uM)	apparent KD of K4 kissing-loop reporter (input ligand: arginine 13.2 mM)	apparent KD of K4 kissing-loop reporter (input ligand: none)	apparent KD of K4 kissing-loop reporter [1]	apparent KD of K4 kissing-loop reporter [2]
ACGUGCACUAGUGAUGUUGGAAAAUAGGAAGGAGCGGGCGAAAGCCCAGGUAGGUCGCCUAAUAGCACGAGCCACGAAAGUGGCA	376 nM	514 nM	645 nM	774 nM	522 nM
AGAACUGUCUGAGAUACCAGCCAAGGAGUGAUGUUCCGGCUCGACGAAACGUCGAGCCAUGGCCCUUGGCAGCUCAGACAGUUCA [Omei KL Theo B SS A v2]	249 nM	116 nM	195 nM	191 nM	102 nM
UCUGUUGUAUAUGAUACCAGCAGUGAGAGAUGAGAAGUAUAGUGAUGUUAUAUGAGUGAAUGCCCUUGGCAGCGUGUGCGUGUGG [SSTheophylB.aD]	101 nM	112 nM	94 nM	134 nM	87.5 nM
AGCUAGUACGCAGGAUAUUGAACAUCAUUUAGUGAGAUCGAGUGAUGUUCGAUCACGACUUCAGUUCGAGAAGGGCGUACUAGCA [#02 K4 FMN B Same State]	160 nM	663 nM	931 nM	1070 nM	861 nM
AUUAUAAAGUCGGCCGCCACUGAGAGUAGUGAUGUUACUCUAUUCCUUUAGAUAUUAUAUUUUAUCAGGACCGGGACAUCAGAUU [JR_ExcTryptoB_Sub019]	332 nM	341 nM	317 nM	290 nM	228 nM
UAUUUAGUGACGGCCGCCACUAUUGUGAUUUAUUUGUUUGAGUGAUGUUUUGAUGUUUGAUUUUGUAGGACCGGGUUAUGUGUUA [awscmullin]	1080 nM	733 nM	938 nM	804 nM	708 nM
CCAAUCAGUUACGAUACCAGUCUAAUAUAUUUGAUCAAAACCCUCGCCGAGUGAUGUUCGGACCCUUGGCAGCGUCUGGGACAGG [fcctmullin]	502 nM	417 nM	446 nM	474 nM	394 nM
AAAGGAUCAGAGAGUGAUGUUCUCUAAUAACGAGGACCGGUACGGCCGCCACUCGAAGAUCCAAAAGUCCUACGAAAAGUAGGAC [Omei inspired 7]	92.9 nM	69.3 nM	83.7 nM	251 nM	263 nM
CGUUUAUAGGAGGAUACCAGUACGGAUAAAGUACGUUAAUAGUAGAGUGAUGUUCUAAAGUACCCUUGGCAGCUUAGAGUGAGUG [ExTheophylB.N]	100 nM	104 nM	106 nM	121 nM	73.6 nM
UUUAUGAGGUCGGCCGCCACUGGAUUUAUGUUUGUUUCGUCUGGAUCAAAGUGAUGUUUUGAGUCCAGGACCGGGACAUUUGUUA [whbob_Ex_Tryp_B_w40]	85.3 nM	76.3 nM	80.5 nM	76.8 nM	94 nM
AAGAAUGCAGGAAGGAGCGGCGGACGGAGUGAUGUUCCGGCUAGUGAUGUUAGCAAACACCGCCAGGUAGGUCGCCUGCUGCCCU [Same State Arginine B GF 6]	207 nM	127 nM	171 nM	153 nM	151 nM
AAGUGUCAUUAGACACACGCAUCUAUAAACUAGGAUAUGCUGAUAAGCAGAAGGAGUGAUGUUCCUUUCAUGAUGCGAAUUAAAU [#07 K4 FMN A Exclusion]	224 nM	123 nM	113 nM	135 nM	111 nM
GGUGUUGUUUGUGCUGUUUUCUUCGUUUCUCGAGGACCGGUACGGCCGCCACUCGAGUGAUGUUUGGGUAGCGAUGUUUGUUAGU [Bdazzled - #3 - Exc. Tryptophan A]	473 nM	287 nM	373 nM	360 nM	470 nM
AUCUAUGAGCGAGGAUAUGCAUAACGCGAGUGAUGUUCGCGAUGUGGGCGUAAUUGAUAAAAUGAAGCAGAAGGCGCACUCAUGA [Exclusion - FMW B / B]	165 nM	115 nM	177 nM	155 nM	120 nM
UGACUGGACUGAAGGAGCGCUAAACUCCUAGUGAUGUUAGGAUAACGAGACAAAGUCUCGAGGCAGGUAGGUCGCAGUCUAGUCU	128 nM	134 nM	131 nM	137 nM	128 nM
UGAUUUAACUGAAGGAGCGGCAAUUGAUAAGGAAAUAUAGUGAUGUUAUAUAAGAGAGAGAGCCAGGUAGGUCGCAGAGGGAGGA [ExArgB.H]	182 nM	105 nM	110 nM	154 nM	145 nM
